Measurements as given in US12522842B2, “Glutamine synthetase mutant having glufosinate resistance and application thereof and cultivation method therefor” (GEVOTO LLC, priority 2019, dated 2026).
Changes are numbered by the printed parent chain. Names may count otherwise.

B1: TaGS_WT: wild-type wheat glutamine synthetase, SEQ ID NO. 2, control (protein, listed as Triticum aestivum)
chain: MALLTDLLNLDLTDSTEKIIAEYIWIGGSGMDLRSKARTLPGPVTDPSKLPKWNYDGSSTGQAPGEDSEVILYPQAIFKDPFRKGNNILVMCDCYTPAGVPIPTNKRYNAAKIFSNPDVAKEEPWYGIEQEYTLLQKDINWPLGWPVGGFPGPQGPYYCSIGADKSFGRDIVDSHYKACLFAGVNISGINGEVMPGQWEFQVGPTVGISAGDQVWVARYLLERITEIAGVVVTFDPKPIPGDWNGAGAHTNYSTESMRKDGGFKVIVDAVEKLKLKHKEHIAAYGEGNERRLTGKHETADINTFSWGVANRGASVRVGRETEQNGKGYFEDRRPASNMDPYVVTSMIAETTILWKP
B2: OR: rice GS mutant, H296R versus SEQ ID NO. 1 (SEQ ID NO. 32) (protein)
chain: MASLTDLVNLNLSDTTEKIIAEYIWIGGSGMDLRSKARTLSGPVTDPSKLPKWNYDGSSTGQAPGEDSEVILYPQAIFKDPFRKGNNILVMCDCYTPAGEPIPTNKRHNAAKIFSSPEVASEEPWYGIEQEYTLLQKDINWPLGWPVGGFPGPQGPYYCGIGADKSFGRDIVDSHYKACLYAGINISGINGEVMPGQWEFQVGPSVGISAGDQVWVARYILERITEIAGVVVSFDPKPIPGDWNGAGAHTNYSTKSMRNDGGYEIIKSAIEKLKLRHKEHISAYGEGNERRLTGRRETADINTFSWGVANRGASVRVGRETEQNGKGYFEDRRPASNMDPYIVTSMIAETTIIWKP
modifications: OR
B3: OsGR: rice GS mutant, S59G and H296R in SEQ ID NO. 1 (SEQ ID NO. 22) (protein)
chain: B2 chain with S59G
modifications: OsGR
B4: OsGS_WT: wild-type rice glutamine synthetase, SEQ ID NO. 1, negative control (protein, listed as Oryza sativa)
chain: B2 chain with R296H
B5: OsY: rice GS mutant, S59Y versus SEQ ID NO. 1 (SEQ ID NO. 19) (protein)
chain: B2 chain with S59Y, R296H
modifications: OsY
B6: OsH: rice GS mutant, S59H versus SEQ ID NO. 1 (SEQ ID NO. 13) (protein)
chain: B2 chain with S59H, R296H
modifications: OsH

Tests used:
[1] = tested on: glutamine synthetase-deficient Escherichia coli; assay: Growth of glutamine synthetase-deficient E. coli transformed with GS mutants in M9 medium containing glufosinate; type: cell-based; conditions: for growth of transformed GS-deficient E. coli (normal GS enzymatic activity): medium containing 0 mM glufosinate
Description: According to the sequences of the nucleic acid molecules provided in Example 4, the nucleic acid sequences encoding rice GS mutants OsA, OsC, OsD, OsE, OsF, OsG, OsH, OsI, OsK, OsP, OST, OsV, and OsY were synthesized using chemical synthesis method. Restriction digestion sites (Pac1 and Sbf1) were introduced at both ends thereof, and after restriction digestion, they were linked under the action of ligase to an expression vector (such as pADV7 vector, whose structure is shown in FIG. 4) that was subjected to the same restriction digestion treatment. Then, glutamine synthetase-deficient Escherichia coli was transformed with the resultant. After verification, positive clones were picked up and inoculated in M9 medium containing different concentrations of glufosinate to grow, and the growth status of defective Escherichia coli was observed.
With wild-type rice GS (its amino acid sequence shown in SEQ ID NO. 1 and its encoding gene shown in SEQ ID NO. 4) as a negative control, the glufosinate resistance for the GS mutant OsA (S59A, wherein the amino acid S at site 59 of the rice GS is mutated into A), OsC (S59C), OsD (S59D), OsE (S59E), OsF (S59F), OsG (S59G), OsH (S59H), OsI (S591), OsK (S59K), OsP (S59P), OsT (S59T), OsV (S59V), OsY (S59Y) was detected.
With reference to the detection method of Experimental Example 1, glufosinate resistance of the rice GS mutant OsGR (S59G and H296R, the amino acid S at site 59 of rice GS is mutated into G and the amino acid H at site 296 is mutated into R), the wheat GS mutant TaGR (S59G and H296R, the amino acid S at site 59 of wheat GS is mutated into G and the amino acid H at site 296 is mutated into R), the soybean GS mutant GmGR (S59G and H296R, the amino acid S at site 59 of soybean GS is mutated into G and the amino acid H at site 296 is mutated into R) provided in Example 2 was verified.
With reference to Experimental example 1, the glufosinate resistance of rice GS mutants OA, OD, OE, OG, OI, OK, OM, OP, OQ, OR, OS, OT, and OV provided in Example 3 was detected according to the following method.
With wild-type rice GS as a negative control, the glufosinate resistance of GS mutants OA (H296A, amino acid H at site 296 of rice GS is mutated into A), OD (H296D), OE (H296E), OG (H296G), OI (H2961), OK (H296K), OM (H296M), OP (H296P), OQ (H296Q), OR (H296R), OS (H296S), OT (H296T), OV (H296V) was detected.

[2] = target: wheat GS (glutamine synthetase); assay: Enzymatic activity of purified wheat GS: kinetic parameters and glufosinate IC50; type: biochemical, wheat (Triticum aestivum); conditions: inhibition of wheat GS by glufosinate; read-out: glufosinate resistance parameter IC50
Description: (§1) OsC, OsF, OsG, OsH, OsP, and OsY provided in Example 1, OR provided in Example 3, and rice GS mutant OsGR and wheat GS mutant TaGR provided in Example 2 were detected for their enzymatic kinetic parameter, and enzymatic kinetic parameter in the presence of glufosinate, using wild-type rice GS OsGS_WT and wild-type wheat GS TaGS_WT as controls according to the following method.
(§2) The nucleic acid sequences encoding the above mutants were each cloned into a prokaryotic expression vector pET32a, and the clone was verified by sequencing.
(§3) The mutant enzyme protein was purified with 6His by a standard method, and its concentration was determined with a protein concentration assay kit with Bradford method. The protein was stored in a protein storage solution.
(§4) ELIASA (Detielab, HBS-1096A), glufosinate, substrate sodium L-glutamate (CAS: 6106-04-3).
(1) The composition of a reaction solution for determination of enzymatic activity of glutamine synthetase were as follows: 100 mM Tris-HCl (pH 7.5), 10 mM ATP, 20 mM sodium L-glutamate, 30 mM hydroxylamine, 20 mM MgCl2. 100 μl of the reaction solution after mixed thoroughly was preheated at 35° C. for 5 min, and 10 μl of mutant protein solution (protein concentration of 200 μg/ml) was added to start the reaction. […] The absorbance at 540 nm was measured.

rice (Nipponbare) = assay: Glufosinate resistance of transgenic rice after spraying 1x field dose; type: in vivo; conditions: 1x glufosinate, 450 g/ha, day 7 after spraying
Description: The glufosinate resistance resulting from the OR mutants provided in Example 3 in transgenic rice was detected according to the following method.
The nucleic acid sequence encoding OR was inserted into the pGVP1 vector (see FIG. 11) according to a conventional method to obtain the pGVP1-OR vector.
The pGVP1-OR vector was transformed into competent cells of EHA105 (Agrobacterium tumefaciens), the monoclonal was picked up for colony PCR detection, and positive strains were obtained; then the positive strains were inoculated into 1 mL YEP medium containing 50 μg·mL^−1 kanamycin and 50 μg·mL^−1 rifampicin for propagation, and stored at −80° C. or used in subsequent experiments. […]
Rice plants transformed with OR mutant gene were detected using the PCR method, forward and reverse detection primers were designed according to pGVP1-OR vector sequence and rice reference gene, the PCR amplification products were assayed by 1.5% agarose gel electrophoresis, and those with bands at 452 bp and 629 bp were transgenic plants.
The transplanted transgenic rice seedlings were evenly arranged in the same experimental area (to avoid overlapping leaves). The area of occupied regions of the experimental group and the control group was calculated. […]

[3] = target: rice GS (glutamine synthetase); assay: Enzymatic activity of purified rice GS: kinetic parameters and glufosinate IC50; type: biochemical, rice (Oryza sativa); conditions: inhibition of rice GS by glufosinate
Description: as §1, §2, §3, §4
(1) The composition of a reaction solution for determination of enzymatic activity of glutamine synthetase were as follows: 100 mM Tris-HCl (pH 7.5), 10 mM ATP, 20 mM sodium L-glutamate, 30 mM hydroxylamine, 20 mM MgCl2. 100 μl of the reaction solution after mixed thoroughly was preheated at 35° C. for 5 min, and 10 μl of mutant protein solution (protein concentration of 200 μg/ml) was added to start the reaction. After reaction at 35° C. for 30 min, 110 μl of color developing solution (55 g/L FeCl3·6H2O, 20 g/L trichloroacetic acid, 2.1% concentrated hydrochloric acid) was added to terminate the reaction. The absorbance at 540 nm was measured.

[4] = medium containing 10 mM glufosinate
[5] = media containing 10 mM, 20 mM and 300 mM glufosinate
[6] = medium with 50 mM/100 mM glufosinate

Molecule | growth of transformed GS-deficient E. coli (normal GS enzymatic activity) [1] | growth of transformed E. coli (glufosinate resistance) [1, 4] | glufosinate resistance parameter IC50 [3] | growth of transformed E. coli (glufosinate resistance) [1, 5] | growth of transformed E. coli (glufosinate resistance) [1, 6] | also measured
B1 | could normally grow | – | – | – | – | growth of transformed E. coli (glufosinate resistance) ([1]; media containing 2 mM, 5 mM, 10 mM, and 20 mM glufosinate): could hardly grow; IC50 [2]: 600 µM
B2 | could normally grow | significantly superior to that of the wild type | much higher than those of the wild-type controls | – | – | growth of transformed E. coli (glufosinate resistance) ([1]; medium containing 20 mM glufosinate): significantly grew; growth of transformed E. coli (glufosinate resistance) ([1]; medium containing 50 mM glufosinate): still significantly grew; performance of transgenic rice seedlings after spraying glufosinate (rice (Nipponbare)): not significantly affected by glufosinate and continued to grow
B3 | could normally grow | – | much higher than those of the wild-type controls | grew significantly | – | growth of transformed E. coli (glufosinate resistance) ([1]; medium containing 300 mM glufosinate): grew significantly
B4 | could normally grow | could hardly grow | – | could hardly grow | – | IC50 ([3]; read-out: glufosinate resistance parameter IC50): 700 µM
B5 | could normally grow | significantly superior to that of the negative control | much higher than those of the wild-type controls | – | significantly grew | –
B6 | could normally grow | significantly superior to that of the negative control | much higher than those of the wild-type controls | – | significantly grew | –
